Results published in US20030166567.

Target: T1, 19-mer (SEQ ID NO:11) cleavage domain peptide
T1 chain: PRCGNPDVANYNFFPRKPK

B1: Proenzyme pro-MMP-9 (protein)
chain: APRQRQSTLVLFPGDLRTNLTDRQLAEEYLYRYGYTRVAEMRGESKSLGPALLLLQKQLSLPETGELDSATLKAMRTPRCGVPDLGRFQTFEGDLKWHHHNITYWIQNYSEDLPRAVIDDAFARAFALWSAVTPLTFTRVYSRDADIVIQFGVAEHGDGYPFDGKDGLLAHAFPPGPGIQGDAHFDDDELWSLGKGVVVPTRFGNADGAACHFPFIFEGRSYSACTTDGRSDGLPWCSTTANYDTDDRFGFCPSERLYTQDGNADGKPCQFPFIFQGQSYSACTTDGRSDGYRWCATTANYDRDKLFGFCPTRADSTVMGGNSAGELCVFPFTFLGKEYSTCTSEGRGDGRLWCATTSNFDSDKKWGFCPDQGYSLFLVAAHEFGHALGLDHSSVPEALMYPMYRFTEGPPLHKDDVNGIRHLYGPRPEPEPRPPTTTTPQPTAPPTVCPTGPPTVHPSERPTAGPTGPPSAGPTGPPTAGPSTATTVPLSPVDDACNVNIFDAIAEIGNQLYLFKDGKYWRFSEGRGSRPQGPFLIADKWPALPRKLDSVFEERLSKKLFFFSGRQVWVYTGASVLGPRRLDKLGLGADVAQVTGALRSGRGKMLLFSGRRLWRFDVKAQMVDPRSASEVDRMFPGVPLDTHDVFQYREKAYFCQDRFYWRVSSRSELNQVDQVGYVTYDILQCPED
In the case of B1, the “anti-activation (splicing) assay: conversion of pro-MMP-9 by stromilysin, followed by HPLC” value is reported as “Titrating the standard splicing reaction with the 19-mer (SEQ ID NO:11) peptide prevents the conversion of pro-MMP-9 into the prodomain and the active enzyme ... Splicing can be inhibited in a dose dependent manner with micromolar 19-mer (SEQ ID NO:11) peptide”.
